Experimental data published in US8663912B2, “Fluorogenic substrate for ADAMTS13” (Washington University, priority 2011, dated 2014).
* marks the point of attachment. X1 = CC1(C)C(/C=C/C2=C(Cl)C(=C/C=C3/N(CCCCCC(=O)*)c4ccc5cc(S(=O)(=O)O)ccc5c4C3(C)C)/CCC2)=[N+](CCCS(=O)(=O)[O-])c2ccc(N(CCCS(=O)(=O)O)CCCS(=O)(=O)O)cc21; X2 = CC(C)(C)c1cc(/C=C/C=C2\N(CCCS(=O)(=O)O)c3ccc(S(=O)(=O)O)cc3C2(C)CCCC(=O)CCN2C(=O)CC(*)C2=O)c2ccc(N(CCCS(=O)(=O)[O-])CCCS(=O)(=O)O)cc2[o+]1

Experiment: Stability and pH dependence of fluorescence of FRETS-rVWF71
Assay type: physicochemical
Procedure: In these experiments, DyLight 633 maleimide (Thermo Scientific, Waltham, Mass.) 1 mg/100 μL in dimethyl sulfoxide (DMSO) was added dropwise with stirring to peptide VWF71 (10 mg) in ≦2 mL of 100 mM sodium phosphate, pH 7.1, in the dark, and stirred overnight at room temperature. The product DyLight 633-rVWF71 was purified by HPLC on C18 using the TEAA/acetonitrile solvent system as described for the purification of VWF71. DyLight 633-rVWF71 was lyophilized and desalted on a small column of PD-10 in ≦2 mL of 100 mM sodium phosphate, pH 7.9. IRDye QC-1 N-hydroxysuccinimide ester 0.5 mg in 100 μL DMSO was added dropwise with stirring and the solution was stirred overnight at room temperature protected from light. The product FRETS-rVWF71 was purified by reverse phase HPLC, lyophilized, dissolved in ≦0.5 mL of deionized water and applied onto a column (7×230 mm) of Amberlite IR120 sodium form. FRETS-rVWF71 product was eluted with deionized water and lyophilized or concentrated by ultrafiltration to ≧250 μM. The concentration was verified by amino acid analysis (The Protein Chemistry Laboratory, Texas A&M University).

## X1-GQAPNLVYMVTGC(X2)PASDEIRRLPGDIQVVPIGVGPNANVQELERIGWPNAPILIQDFETLPREAPDLVLQR [FRETS-rVWF71]
Excitation 635 nm, uncleaved and fully cleaved substrate, between pH 5 and pH 10
  variation of fluorescence emission at 660 nm with pH: < 7%
Sodium salt
  stability of final product: stable
Working stocks at −20° C. thawed and refrozen repeatedly over several months
  stability on storage: without any change in stability or chemical properties
